Experiment: yeast display, Sf9 membrane polyspecificity reagent, FACS + sequencing; frameworks hold sequencing errors
In short: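 Synthetic nanobody libraries on Saccharomyces cerevisiae BJ5465 were galactose-induced for 36–48 hours, stained 1 hour at 4 °C with 10% biotinylated, detergent-solubilized Sf9 membrane reagent and enriched on streptavidin microbeads. FACS then separated cells into low and high (top ~1%) gates by anti-HA (expression) and streptavidin (reagent binding) fluorescence. Genes were colony-PCR amplified, MiSeq 2 × 250 sequenced and CDR-length filtered. A clone's polyreactivity label is that of its gate of origin.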

Sequence | polyreactivity (PSR sort gate)
QVQHVESGGGLVQAGGSLRLSCAASGIIFLRYGMGWYREAPGKERELVPAISSGGSTNYADSVKGRFTISRDNAKNTVYLQLNSLKPEDTAVYYCAALYGRGRPQDSTFLFDYWGPGTQVTVSS | low polyreactivity
QVQLHESGGGLVQAGGSLRLSCAASGSISAVGAMGWNRQPPGKEREFAASVNWGTNTNYADSVKGRFTFSRDNAKNTLYLQMNSLKPEDTGVYYCAVLPDWETRHDYWGHGTQVTVSS | low polyreactivity
QVQLVESGGGLVQAGGSLRLSCAASGGIYYYAMGWDRQAPGKERELVAAISSGGGNTNYADSVKGRFTISRDNAKNTVYLQMNSLKPVDTAVYYCAAEHPVTYRTSKFDYWGQGTQVTVSS | low polyreactivity
QVQLVESGGGLVQAGGSLRLSCAASGRTFSTYAMGWYRQSPGKERELVAAITWRGASTYYADSVKGRFTISRDYAKNTVYLQMNSLKPEDTAVYYCATDAPDRTDSDSGFDAGYDYWGQGTQVTLSS | low polyreactivity
QVQLVESGGGLVQAGGSLRLSCDASGFIFVVYALGWYRQAPGKERDLVAAITNGGITYYADSVKGRFTISRDNAKNTVYLQMNSLKPEDTAVYYCNAQYTVYDGYVCYYYWGQGTQVTVSS | low polyreactivity
QVQLVESGGGLVQAGGSLRLSCAASGITFVRYTMGWYRQAPGKEREFVAGITRGGSTYYADSVKGRFTISRDNAKNTVYLQMNSLKPEDTAVYYCAARPRFLRASVEYDYWGQGTQVTVSS | high polyreactivity
QVQLEDSGGGLVQAGGSLRLTCAASGRIFYPNVIGRNRQAPGKERELVAAIRTSGTGTYYADSVKGRFTISRDNAMNNVYLQMNSQKTQDTAGYYCAADYGYNRYWWWDWSYEYGYEYWGQGTQVTVSS | high polyreactivity
QVQLVESGGGLVQAGGSLRLSCAASGIIFSGYVMGWYRQAPGKERELVAAIRWNGGNTYYADSVKGRFTISRDNAKNTVYLQMNSLKPEDTAVYYCAGRVRRPYSSLDYWGQGSQVTVSS | high polyreactivity
QEQLVESGGGLVQAGGSLRLSCAASGSILRYYAMRWYRQPPGKEREFVAAISWSGTSTYYADSVKGRFTISRDIAKNTVYLQLNSLKPEDTSVYYCAARTYYVPYYYCGQGTQVTVSS | high polyreactivity
QVQLVESGGGLVQAGGSLRLSCAASGSIFRSNTMGWYRQAPGKERELVASITRGGSTNYADSVKGRFTISRDNAKNTVYLQMNSLKPEDTAVYYCIARRTVRYYFSYGYWGQGTQVTVSS | high polyreactivity
QVQLVESGGGLVQAGGSLRLTCAASGRIFWRNAMGWYRQAPGKVREFVAAITGTGGSTYYADSVKGRFTISRDTAKNTVYLQMNSLKPEDTAVYYCAARWDYSYRYRLYYWGQGTQVTVSS | high polyreactivity
QVQLVESGGGLVEAGGSLRLSCAASGTFVYNAMGWYIQAPGKERELVAAISWSGSSTYADSVKGRFTISRDNAKNTVYLQMNSLKPEDTAVYYCAADGYGYNTYQQYYKKSSYWGQGTQVSVSS | low polyreactivity
QVQLVESGGGLVQAGGSLRLSCAASGITIGRYAMGWYRQAPGKERELVAAISWSGGSTYYADSVKGRFTISRDNAKNTVYLQMNSLKPEDTAVYYCNKLRRYSEYNADDGDYWGQGTQVTVSS | high polyreactivity
QVQLVESGGGLVQAGGSLRLSCAASGRIFGTYTMGWYRQAPGKERELVAAISRNGGSTYYADSVKGRITISRDNAKNTVYLQMNSLKPEDTAVYYCNAERRDDRGFDYWGQGTQVTVSS | low polyreactivity
QVQLVESGGGLVQAGGSLRLSCAASGLTFRYYAMGWYRQAPGKERELVAAITRRGSTYYADSVQGRFTISRDNAKNTVYLQMNSLKPEDTAVYYCAADDPYTPQYPDVTYDYWGQGTQVTVSS | high polyreactivity
QVQLVETGGGLVQAGGSLRLSCAASGFIFAYNAMGWYRQAPGKERELVAAISWSGGSTYYADSVKGRFTISRDNAKITVYLQMNCLKPEDTAVYYCNAVSYFGARYDYWGQGTQVTVSS | high polyreactivity
QVQLVESGGGLVQAGGSLRISSAASGRTFQTNVMGWYRQAPGKERELVAAISKTGGRTYYADSVKGRFTISRDNAKNTVYLQMNSLNPEDTAVYYCAADSSGYEDYDYWGQGTQVTVSS | high polyreactivity
QVQLQESGGGLVQAGGSLRQSYAASGYIFPSLAMGWYRQAPGKEREFVAAIGRGSTNNYADSVQGRFTISRDNAKNTAYQQMNSLKPEDTAVYYCAAAASPLTRHLYWGQGTQVTVSS | low polyreactivity
QVQLEESGGRLVQAGARLRLSCAASGPIFHQYAMGWYRHAPGKERELGAAISSGGGSTYYADSVKGRFTISRDNAKNTGYLQMNSLKPEDTAVYYCNVYSVRWARFDFWGQGTQVTVSS | high polyreactivity
QVQLVESGGGVVQAGGSLRLSCAASGFLFSHNAMGWYRQAPGKERELVASITSAGTTYYADSVKGRFTISRDNAKNTVYLQMNSLKPEDTAVYYCNKGGSSPVDIYITGDGDYWGQGTQVTVSS | low polyreactivity
QVQLVESGGVLVQAGGSLRLSCAASGRTFYYYAMGWYRQAPGKEREFVAVISGSGANTFYADSVKGRFTISRDNAKNTVYLQMNSLKPEDTAVYYCAARSWEGYGYWGQGTQVTVSS | high polyreactivity
QVHLVESGGVLLQAGGSLRLSCAASGFIFKWNAMGWYRQAPGKERELVAAISWHGGSTNYADSVKGRFTISRDNAKNTVYLQMNSLKPEDTAVYYCAKQQSPYYPSTLDYWGQGTQVTVSS | high polyreactivity

Sequence | polyreactivity (PSR sort gate)
QVQLVESGGGIVQAGGSLRLSCAASGSIFYAYAMGWYRQAPGKERELVASISRGVNTNYADSVKGRFTISRDNAKNTVYLQMNSLKPEDTAVYYCNARLRYGHGYGYWGQGTQVTVSS | low polyreactivity
QVQLVESGGGLVQAGGSLRLSCAASGSIFYSNAMGWYRQAPGKEREFVAAISAGGGSTYYADSVKGRFTISRDNAKNTVYLQMNSLKPEDTAVYYCAAQPYKIIYPYDYWGQGTQVTVSS | low polyreactivity
QVQLVESVGGLVQAGGSLRLSCAASGFIFSVYAMGWNRQAPGKERELVAVISTSGGRTYYADSVKGRFTISRDNAKNTVYLQMNSLKPEDTAVDYCAADGFQYTLGNYYWGQGTQVTLSS | high polyreactivity
QVQLEESRGGIVQAGGSLRLSCAASGFTFSTYAMGWYRPAPGKELELVASISRSGNTNYADSVKGRFTISRDNAKNTVYLQMKSLKPEDTAVYSSAAELVYRRVRYDYWGQGTQVTVSS | high polyreactivity
QVQLVESGGGLVQAGGSIRLSCAASGSTFGGNAMGWYRQAPGKERELVAAITGTGGRTFYADSVKGRFTISRDNAKNTVYLQMNSLKPEDTAVYFCAADSYIYSVNYWGQGTQVTVSS | low polyreactivity
QVQLVESGGGLVQAGGSLRLSCAASRSTFSDNAMGWYRQAPGKERELVAAISRSGGSTYYADSVKGRFTISRDTAKNTVYLQMNSLKPEDTAVYYCATKRVLTGYDSWGQGTQVTVSS | high polyreactivity
QVQLVESGGGLVQAGGSLRLSCAASGYILHRNAMGWYRQAPGKERELVAVISWGGTSTYYADSVKGRFTISRDNAKNTVYLLMNSLKPEDTAVYYCNAKGWYYKYDYWGQGTQVNVSS | high polyreactivity
QVQLVESGGGLVQAGGSLRLSCAASGRIIYTYAMGWYRQAPGKERELVAAISWSGGSTYYADSVKGRFTISRDNAKNTVYLQMNSLKPEDTAVYFCNAAYYGYENLSKRGYWGQGTQVTVSS | high polyreactivity
QVQLVESGGGLVQAGVSLRLSCAASGFTFPWYAMGWYLQAPGKERELVAAISWTGGSTYYADSVKGRFTSSRDNPKNTVNLQMLSLKPEDTAVYYCAVGIYDHLYNHEYWGHGTQVTVSS | low polyreactivity
QVQLVESGGGLVQAGGSLRLSCAASGLIFSEYAMGRSRQAPWKERELVAAIRSDGGSTYYADSVKGRFTISRDNAKNSVYLQMNSLKPEDTAVYYCNAPYRRSAKFRRYGYDYWGQGTQVTVSS | high polyreactivity
QVQLVESGGGLVQAGGSLRLTCAASGSTFYPYAMGWYRQAPGKERELVAAISSGGSTYYADSVKGRFTISRDNAKNSVYLQMNSLKPEDTAVYYCAADFYYAYYWGQGTQVTVSS | low polyreactivity
QVQLVESGGGLVQAGGSLRLSCAASGSTFWENSMGWYRQAPGKERELVAAISWGGGSTYYADSVKGRFTISRDNAKNTVYLQMNSLKPEDTAGYYCAADQTSPQFLTSYGGYNYWGQGTQVTVSS | low polyreactivity
QDQLVESGGGLVQAGGSLRLSCAATGRIFKLYAMGWYRQAPGKERELVAAISSSGTRTYYADSVKGRFTISRDNAKNTVYLHMNSMKPEDTAVYYCAKRWPRKGNYPGSDYWGQGTQVTVSS | high polyreactivity
QVQLVESGGGLVQAGGSLRLSCAASGSTFSYNAMGWYRQAPGKERELVAAISRGDVSTYYADSVKGRFTISRDNAKNTVYLQMNSLKPEDTAVYYCADYWYGSQYKWRYDYWGQGTQVTVSS | low polyreactivity
QVQLVESGGGLVQAGGSLRLSCAASGSIFYLYAMGWYRQAPGKERELVAAISSGGSTNYADSVKGRFTISRDNAKNTVYLQMNSLKPEDTAVYYCAAGYKRLHWPKSDSFHGMYYWGQGTQVTVSS | low polyreactivity
QVQIVESGGGLVQARGSLRLSCAASGFIFGSYASGWYRQAPGKERELVAAISWNGDSTYYADSVKGRFTISRDNAKITVYLQMNSLKPEDTAVYYCNAVDVFLYQTDGLGDYWGQGTQVTVSS | low polyreactivity
QDQLVESGGGLVHAGCSLRLSCAASGRTFYGNAMGWYRQAPGKERELVAGITRGGSTYYADSVKGRFTISRDNAKNNVYLQMNSLKPEDTAVYYCAATRYYSWGSRGGYWGQGTQVSVSS | high polyreactivity
QVQLVESGGGLVQAGGNLRLSCAASGRIFSSYAMGWYRQAPGKERELVAAITGTGGTTYYADSVKGRFTISRDNAKYTVYLQMNSLKPEDTAVYYCNAERIYRLSRDSAVQYDYWGQGTQVTVSS | low polyreactivity
QVQLVESGGGLVQAGGSLRLSCAASGSIFFPYAMGWYRQAPGKERELVAAITRSGGRTYYADSVKGRFTISRDNAKNTVYLQMNSLKPEDTAVYYCAAGPWYNFYDSRPWFSYDYWGQGTQVTVSS | low polyreactivity
QVQLVESGGGLVQAGGSLRLSCAASGRTFASYAMGWYRQAPGKERELVAVISRGGSNTNYADSVTGRFTISRDNAKNTVYLQMNSLKPEDTAVYYCADLAFKRYNPGGYDYWGQGTQVTVSS | high polyreactivity
QVQLVESGGGLVQAGGSLRLSCAASGSTFVVNAMGWYRQAPGKERELVAAITQDGDGTYYADSVKGRFTISRDNAKNTVYLQMNSLKPEDTAVYYCAAYPFYGPYDEFDYWGQGTQVTVSS | low polyreactivity
